Measured values reported in US20130184160.
pKd: −log10 of the molar value.

Experiments:
Experiment in all cases: filter
[1] = tested on: Fibrinogen (glycosylated, untreated), P02671-2+P02675+P02679; settings: T positions from B-TTP; average Kd of pool after round 13
[2] = target: Alpha-1 acid glycoprotein (UniProt P02763); settings: T positions from B-TTP (quinoline-8-boronic acid linked at 5-position of dU via triazole), outside primer; specificity control
Fetuin = target: T1, Fetuin (UniProt P12763); settings: T positions from B-TTP (quinoline-8-boronic acid linked at 5-position of dU via triazole), outside primer; specificity control
T1 sequence: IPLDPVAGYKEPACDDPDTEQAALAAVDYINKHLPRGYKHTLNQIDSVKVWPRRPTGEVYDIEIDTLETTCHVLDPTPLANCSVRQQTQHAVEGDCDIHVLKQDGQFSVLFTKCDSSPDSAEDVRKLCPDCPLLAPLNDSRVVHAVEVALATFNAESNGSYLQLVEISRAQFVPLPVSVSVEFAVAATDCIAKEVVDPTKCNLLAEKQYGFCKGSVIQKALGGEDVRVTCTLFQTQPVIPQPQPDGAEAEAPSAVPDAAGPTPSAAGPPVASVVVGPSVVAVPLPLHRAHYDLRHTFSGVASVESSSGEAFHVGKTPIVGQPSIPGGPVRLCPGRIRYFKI

Alpha-1 acid glycoprotein, sequence (P02763 19-201): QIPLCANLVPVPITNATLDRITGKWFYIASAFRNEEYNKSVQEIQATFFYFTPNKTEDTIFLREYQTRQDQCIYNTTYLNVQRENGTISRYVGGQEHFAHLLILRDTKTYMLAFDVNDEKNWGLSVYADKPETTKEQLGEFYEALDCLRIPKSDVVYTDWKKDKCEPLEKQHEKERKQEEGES
Fibrinogen (glycosylated, untreated), P02671-2+P02675+P02679, sequence (P02671 other isoform, or with tags, fused parts or gaps, chain 1 of 3): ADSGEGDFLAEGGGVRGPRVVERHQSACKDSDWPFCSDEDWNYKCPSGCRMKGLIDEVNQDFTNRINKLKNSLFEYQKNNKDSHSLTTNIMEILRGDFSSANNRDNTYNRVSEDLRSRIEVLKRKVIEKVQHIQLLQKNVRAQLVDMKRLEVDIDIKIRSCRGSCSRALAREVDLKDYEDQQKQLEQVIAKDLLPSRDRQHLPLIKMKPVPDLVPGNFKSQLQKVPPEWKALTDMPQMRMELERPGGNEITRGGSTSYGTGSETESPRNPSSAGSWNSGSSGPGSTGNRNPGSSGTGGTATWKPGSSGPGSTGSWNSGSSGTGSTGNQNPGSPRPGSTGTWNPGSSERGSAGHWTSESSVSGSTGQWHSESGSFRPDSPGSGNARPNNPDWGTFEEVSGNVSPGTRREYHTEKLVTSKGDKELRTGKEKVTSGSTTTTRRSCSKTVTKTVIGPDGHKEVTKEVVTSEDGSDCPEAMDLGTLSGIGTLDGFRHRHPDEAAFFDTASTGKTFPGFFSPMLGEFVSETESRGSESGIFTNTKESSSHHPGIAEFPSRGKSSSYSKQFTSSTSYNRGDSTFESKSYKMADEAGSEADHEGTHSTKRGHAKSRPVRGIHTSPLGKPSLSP
Fibrinogen (glycosylated, untreated), P02671-2+P02675+P02679, sequence (P02675 31-491, chain 2 of 3): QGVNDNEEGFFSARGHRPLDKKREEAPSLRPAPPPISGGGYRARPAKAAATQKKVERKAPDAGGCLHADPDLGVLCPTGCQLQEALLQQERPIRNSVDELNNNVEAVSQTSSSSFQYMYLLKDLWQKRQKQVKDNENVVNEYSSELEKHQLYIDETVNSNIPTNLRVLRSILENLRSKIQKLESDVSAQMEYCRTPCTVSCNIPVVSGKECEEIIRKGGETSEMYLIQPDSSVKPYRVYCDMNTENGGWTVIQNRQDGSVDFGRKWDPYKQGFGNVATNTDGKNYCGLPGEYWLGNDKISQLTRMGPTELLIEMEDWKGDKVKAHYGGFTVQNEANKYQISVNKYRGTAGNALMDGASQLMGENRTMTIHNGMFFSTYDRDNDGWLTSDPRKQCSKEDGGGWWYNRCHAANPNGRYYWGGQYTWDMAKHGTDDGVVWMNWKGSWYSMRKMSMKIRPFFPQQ
Fibrinogen (glycosylated, untreated), P02671-2+P02675+P02679, sequence (P02679 27-453, chain 3 of 3): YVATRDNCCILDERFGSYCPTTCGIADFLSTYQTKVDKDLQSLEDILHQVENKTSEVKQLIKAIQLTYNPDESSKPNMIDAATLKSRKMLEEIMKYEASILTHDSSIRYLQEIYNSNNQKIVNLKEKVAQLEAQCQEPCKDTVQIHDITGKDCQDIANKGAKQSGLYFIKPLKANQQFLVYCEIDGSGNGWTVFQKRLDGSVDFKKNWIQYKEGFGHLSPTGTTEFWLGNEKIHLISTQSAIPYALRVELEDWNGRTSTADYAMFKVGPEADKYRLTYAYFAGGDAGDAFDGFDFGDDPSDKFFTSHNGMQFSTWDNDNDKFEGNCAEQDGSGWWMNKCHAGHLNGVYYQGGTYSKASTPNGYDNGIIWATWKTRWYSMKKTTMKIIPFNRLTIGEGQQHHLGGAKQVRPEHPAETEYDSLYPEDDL

Sequence	pKd [1]	pKd [2]	pKd (Fetuin)
CCTTCGTTGTCTGCCTTCGTNNNNNNNNNNNNNNNNNNNNNNNNNNNNNNNNNNNNNNNNNNNNNNNNNNACCCTTCAGAATTCGCACCA [Round 13 fibrinogen pool]	5.30	–	–
CCTTCGTTGTCTGCCTTCGTAGCGGATCGAATTACGCGTTAACGGCAACCGATAACGGGACCGATTGCACACCCTTCAGAATTCGCACCA [85A B-TTP (114H)]	–	6.15	5.66
